Experimental data reported in WO2002045743A2.

Experiments:
[1] = biological target: MH2 peptide (Hepatitis C virus); assay: peptide EIA (Table 4)
[2] = biological target: MH2 peptide (Hepatitis C virus); assay: peptide EIA, Nunc-Immuno and CovaLab plates
[3] = biological target: MH2 peptide (Hepatitis C virus); assay: IAsys biosensor, BSA-HVR1 peptide conjugate

B1: mAb 15H4 (antibody)
chain 1: QVQLQQSGAELARPGASVKLSCKASGYTFTRYWMQWVKQKPGQGLEWIGAIYCGDGDTRFTQKFKGKATLTADKSSSTAYMQLSNLASEDSAVYYCVIYGNYYDAMDYWGQGTSVTVSS
chain 2: DIVMTQAPLSMPVSLGDQASISGRSSQSLVHSNGNTYLHWYLQKPGQSPKLLIHKVSKRFSGVPDRFSGSGSGTDFTLKIRRVEAEDLGVYFCSQNTHVPFTFGGGTK
- EIA Sample/Cutoff ratio (S/CO) [1]: 13.6 S/CO
- EIA Sample/Cutoff ratio (S/CO) [2]: 18.1 S/CO
- Kd [3]: 21.5 nM

B2: mAb 2P24 (antibody)
chain 1: EFQLQQSGAELVRPGPLVTLSCKASGFNIKDYYMNWVKQRPEQGLEWIGRIDPKNGNALYDPKFQDKARITADTSSNTAYLQLNSLTSEATAVYYCSSGWLDYWGQGTSLAVYS
chain 2: DIVMTQSPASLAVFRGQRATISYRASKSVSTSGYSYMHWNQQKPGQPPRLLIYLVSNLESGVPARFSGSGSGTDFTLNIHPVEEEDAATYYCQHIRELTAFGGGTK
- EIA Sample/Cutoff ratio (S/CO) [1]: 24.9 S/CO
- EIA Sample/Cutoff ratio (S/CO) [2]: 24.9 S/CO
- Kd [3]: 5.85 nM
